Reference: PMC5503505 (Nature structural & molecular biology, 2017)

B1: Mcm7 (natural protein)
chain: MSAALPSIQLPVDYNNLFNEITDFLVTFKQDTLSSDATRNENEDENLDAENIEQHLLEKGPKYMAMLQKVANRELNSVIIDLDDILQYQNEKFLQGTQADDLVSAIQQNANHFTELFCRAIDNNMPLPTKEIDYKDDVLDVILNQRRLRNERMLSDRTNEIRSENLMDTTMDPPSSMNDALREVVEDETELFPPNLTRRYFLYFKPLSQNCARRYRKKAISSKPLSVRQIKGDFLGQLITVRGIITRVSDVKPAVEVIAYTCDQCGYEVFQEVNSRTFTPLSECTSEECSQNQTKGQLFMSTRASKFSAFQECKIQELSQQVPVGHIPRSLNIHVNGTLVRSLSPGDIVDVTGIFLPAPYTGFKALKAGLLTETYLEAQFVRQHKKKFASFSLTSDVEERVMELITSGDVYNRLAKSIAPEIYGNLDVKKALLLLLVGGVDKRVGDGMKIRGDINVCLMGDPGVAKSQLLKAICKISPRGVYTTGKGSSGVGLTAAVMKDPVTDEMILEGGALVLADNGICCIDEFDKMDESDRTAIHEVMEQQTISISKAGINTTLNARTSILAAANPLYGRYNPRLSPLDNINLPAALLSRFDILFLMLDIPSRDDDEKLAEHVTYVHMHNKQPDLDFTPVEPSKMREYIAYAKTKRPVMSEAVNDYVVQAYIRLRQDSKREMDSKFSFGQATPRTLLGIIRLSQALAKLRLADMVDIDDVEEALRLVRVSKESLYQETNKSKEDESPTTKIFTIIKKMLQETGKNTLSYENIVKTVRLRGFTMLQLSNCIQEYSYLNVWHLINEGNTLKFVDDGTMDTDQEDSLVSTPKLAPQTTASANVSAQDSDIDLQDA
B2: Orc1 (natural protein)
chain: MAKTLKDLQGWEIITTDEQGNIIDGGQKRLRRRGAKTEHYLKRSSDGIKLGRGDSVVMHNEAAGTYSVYMIQELRLNTLNNVVELWALTYLRWFEVNPLAHYRQFNPDANILNRPLNYYNKLFSETANKNELYLTAELAELQLFNFIRVANVMDGSKWEVLKGNVDPERDFTVRYICEPTGEKFVDINIEDVKAYIKKVEPREAQEYLKDLTLPSKKKEIKRGPQKKDKATQTAQISDAETRATDITDNEDGNEDESSDYESPSDIDVSEDMDSGEISADELEEEEDEEEDEDEEEKEARHTNSPRKRGRKIKLGKDDIDASVQPPPKKRGRKPKDPSKPRQMLLISSCRANNTPVIRKFTKKNVARAKKKYTPFSKRFKSIAAIPDLTSLPEFYGNSSELMASRFENKLKTTQKHQIVETIFSKVKKQLNSSYVKEEILKSANFQDYLPARENEFASIYLSAYSAIESDSATTIYVAGTPGVGKTLTVREVVKELLSSSAQREIPDFLYVEINGLKMVKPTDCYETLWNKVSGERLTWAASMESLEFYFKRVPKNKKKTIVVLLDELDAMVTKSQDIMYNFFNWTTYENAKLIVIAVANTMDLPERQLGNKITSRIGFTRIMFTGYTHEELKNIIDLRLKGLNDSFFYVDTKTGNAILIDAAGNDTTVKQTLPEDVRKVRLRMSADAIEIASRKVASVSGDARRALKVCKRAAEIAEKHYMAKHGYGYDGKTVIEDENEEQIYDDEDKDLIESNKAKDDNDDDDDNDGVQTVHITHVMKALNETLNSHVITFMTRLSFTAKLFIYALLNLMKKNGSQEQELGDIVDEIKLLIEVNGSNKFVMEIAKTLFQQGSDNISEQLRIISWDFVLNQLLDAGILFKQTMKNDRICCVKLNISVEEAKRAMNEDETLRNL
B3: Orc4 (natural protein)
chain: MTISEARLSPQVNLLPIKRHSNEEVEETAAILKKRTIDNEKCKDSDPGFGSLQRRLLQQLYGTLPTDEKIIFTYLQDCQQEIDRIIKQSIIQKESHSVILVGPRQSYKTYLLDYELSLLQQSYKEQFITIRLNGFIHSEQTAINGIATQLEQQLQKIHGSEEKIDDTSLETISSGSLTEVFEKILLLLDSTTKTRNEDSGEVDRESITKITVVFIFDEIDTFAGPVRQTLLYNLFDMVEHSRVPVCIFGCTTKLNILEYLEKRVKSRFSQRVIYMPQIQNLDDMVDAVRNLLTVRSEISPWVSQWNETLEKELSDPRSNLNRHIRMNFETFRSLPTLKNSIIPLVATSKNFGSLCTAIKSCSFLDIYNKNQLSNNLTGRLQSLSDLELAILISAARVALRAKDGSFNFNLAYAEYEKMIKAINSRIPTVAPTTNVGTGQSTFSIDNTIKLWLKKDVKNVWENLVQLDFFTEKSAVGLRDNATAAFYASNYQFQGTMIPFDLRSYQMQIILQELRRIIPKSNMYYSWTQL
B4: Cdt1 (natural protein)
chain: MSGTANSRRKEVLRVPVIDLNRVSDEEQLLPVVRAILLQHDTFLLKNYANKAVLDALLAGLTTKDLPDTSQGFDANFTGTLPLEDDVWLEQYIFDTDPQLRFDRKCRNESLCSIYSRLFKLGLFFAQLCVKSVVSSAELQDCISTSHYATKLTRYFNDNGSTHDGADAGATVLPTGDDFQYLFERDYVTFLPTGVLTIFPCAKAIRYKPSTMATTDNSWVSIDEPDCLLFHTGTLLARWSQGMHTTSPLQIDPRANIVSLTIWPPLTTPISSKGEGTIANHLLEQQIKAFPKVAQQYYPRELSILRLQDAMKFVKELFTVCETVLSLNALSRSTGVPPELHVLLPQISSMMKRKIVQDDILKLLTIWSDAYVVELNSRGELTMNLPKRDNLTTLTNKSRTLAFVERAESWYQQVIASKDEIMTDVPAFKINKRRSSSNSKTVLSSKVQTKSSNANALNNSRYLANSKENFMYKEKMPDSQANLMDRLRERERRSAALLSQRQKRYQQFLAMKMTQVFDILFSLTRGQPYTETYLSSLIVDSLQDSNNPIGTKEASEILAGLQGILPMDISVHQVDGGLKVYRWNSLDKNRFSKLLQIHKSKQQD

What was measured:
Assay in all cases: cryo-EM structure
[1] = molecular target: T1, Mcm4 (S. cerevisiae, UniProt P30665 1-933)
T1 sequence: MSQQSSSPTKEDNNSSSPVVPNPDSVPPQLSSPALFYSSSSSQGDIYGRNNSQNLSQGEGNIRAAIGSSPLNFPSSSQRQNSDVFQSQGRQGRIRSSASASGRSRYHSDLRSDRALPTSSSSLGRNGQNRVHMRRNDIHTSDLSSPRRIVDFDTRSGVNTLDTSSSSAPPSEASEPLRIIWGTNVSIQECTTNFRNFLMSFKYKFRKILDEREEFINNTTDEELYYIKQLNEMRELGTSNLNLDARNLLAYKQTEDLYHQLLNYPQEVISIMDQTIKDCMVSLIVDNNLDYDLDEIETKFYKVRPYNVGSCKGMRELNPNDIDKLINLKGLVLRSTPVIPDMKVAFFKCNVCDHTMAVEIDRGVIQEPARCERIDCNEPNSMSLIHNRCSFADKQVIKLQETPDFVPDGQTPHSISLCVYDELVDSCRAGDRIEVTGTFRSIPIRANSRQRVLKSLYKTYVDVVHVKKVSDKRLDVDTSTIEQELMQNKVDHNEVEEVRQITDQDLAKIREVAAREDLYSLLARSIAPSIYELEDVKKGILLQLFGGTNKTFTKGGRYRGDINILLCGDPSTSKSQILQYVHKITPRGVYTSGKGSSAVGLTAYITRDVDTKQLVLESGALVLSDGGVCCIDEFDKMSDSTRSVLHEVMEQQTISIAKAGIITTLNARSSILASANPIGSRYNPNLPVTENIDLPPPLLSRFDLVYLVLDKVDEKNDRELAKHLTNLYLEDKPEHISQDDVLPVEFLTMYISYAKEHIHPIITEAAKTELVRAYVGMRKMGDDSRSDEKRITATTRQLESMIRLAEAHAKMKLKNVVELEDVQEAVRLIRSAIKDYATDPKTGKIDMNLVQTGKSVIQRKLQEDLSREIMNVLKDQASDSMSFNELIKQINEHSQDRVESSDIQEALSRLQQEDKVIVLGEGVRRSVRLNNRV

[2] = molecular target: Mcm3 (S. cerevisiae, UniProt P24279 1-971)
[3] = molecular target: B4
[4] = molecular target: B2
[5] = molecular target: Mcm6 (S. cerevisiae, UniProt P53091 1-1017)
Sequence of Mcm6 (P53091 whole entry): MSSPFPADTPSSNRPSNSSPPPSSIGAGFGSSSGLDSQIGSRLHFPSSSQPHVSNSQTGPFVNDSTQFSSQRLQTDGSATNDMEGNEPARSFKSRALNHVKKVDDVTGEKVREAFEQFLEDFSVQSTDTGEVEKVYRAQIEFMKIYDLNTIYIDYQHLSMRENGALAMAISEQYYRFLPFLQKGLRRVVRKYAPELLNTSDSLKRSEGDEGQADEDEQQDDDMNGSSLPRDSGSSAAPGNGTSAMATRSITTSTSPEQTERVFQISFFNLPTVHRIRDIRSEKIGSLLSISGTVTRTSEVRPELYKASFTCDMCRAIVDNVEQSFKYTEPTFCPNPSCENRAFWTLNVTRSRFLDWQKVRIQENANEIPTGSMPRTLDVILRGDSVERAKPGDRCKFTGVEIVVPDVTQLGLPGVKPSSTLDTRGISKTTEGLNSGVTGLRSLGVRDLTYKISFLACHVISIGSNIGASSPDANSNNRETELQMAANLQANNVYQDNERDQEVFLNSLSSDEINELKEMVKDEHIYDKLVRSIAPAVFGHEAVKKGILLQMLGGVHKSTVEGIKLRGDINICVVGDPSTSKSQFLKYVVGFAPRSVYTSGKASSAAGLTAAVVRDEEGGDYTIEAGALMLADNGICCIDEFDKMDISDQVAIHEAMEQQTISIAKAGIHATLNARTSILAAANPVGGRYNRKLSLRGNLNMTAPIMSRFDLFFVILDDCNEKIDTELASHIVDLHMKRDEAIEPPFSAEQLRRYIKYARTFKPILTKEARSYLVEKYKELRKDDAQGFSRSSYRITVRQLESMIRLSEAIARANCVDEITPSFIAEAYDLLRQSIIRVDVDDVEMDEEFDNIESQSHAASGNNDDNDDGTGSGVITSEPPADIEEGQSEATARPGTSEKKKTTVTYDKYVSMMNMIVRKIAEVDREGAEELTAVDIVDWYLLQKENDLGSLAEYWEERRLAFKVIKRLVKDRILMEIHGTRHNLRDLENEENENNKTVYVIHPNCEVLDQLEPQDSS

Sequence of Mcm3 (P24279 whole entry): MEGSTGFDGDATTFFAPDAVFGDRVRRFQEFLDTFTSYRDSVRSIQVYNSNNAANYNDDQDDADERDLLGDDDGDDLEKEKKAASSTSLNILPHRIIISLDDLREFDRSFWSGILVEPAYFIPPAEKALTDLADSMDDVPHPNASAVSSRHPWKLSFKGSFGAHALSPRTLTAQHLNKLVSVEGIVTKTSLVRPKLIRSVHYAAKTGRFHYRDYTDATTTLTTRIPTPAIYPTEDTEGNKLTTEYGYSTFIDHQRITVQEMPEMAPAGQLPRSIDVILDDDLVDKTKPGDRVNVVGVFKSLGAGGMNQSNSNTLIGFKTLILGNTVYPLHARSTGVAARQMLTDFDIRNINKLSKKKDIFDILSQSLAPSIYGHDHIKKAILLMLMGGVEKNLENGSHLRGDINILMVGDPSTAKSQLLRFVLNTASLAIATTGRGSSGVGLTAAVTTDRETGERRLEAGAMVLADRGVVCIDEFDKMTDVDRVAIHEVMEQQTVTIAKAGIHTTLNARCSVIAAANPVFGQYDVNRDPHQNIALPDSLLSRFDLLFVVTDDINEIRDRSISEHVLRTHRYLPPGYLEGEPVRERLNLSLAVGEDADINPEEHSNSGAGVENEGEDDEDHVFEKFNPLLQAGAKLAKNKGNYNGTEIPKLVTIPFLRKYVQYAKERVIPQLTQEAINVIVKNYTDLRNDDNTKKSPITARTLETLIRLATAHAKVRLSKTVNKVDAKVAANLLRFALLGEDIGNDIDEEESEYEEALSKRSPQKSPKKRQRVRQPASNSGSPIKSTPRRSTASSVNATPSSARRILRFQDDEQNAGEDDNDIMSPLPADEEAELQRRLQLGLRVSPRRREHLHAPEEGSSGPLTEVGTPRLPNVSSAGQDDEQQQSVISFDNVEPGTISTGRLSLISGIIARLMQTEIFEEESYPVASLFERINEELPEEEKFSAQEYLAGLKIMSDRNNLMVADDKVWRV

Binder	binding result [1]	binding result [2]	binding result [3]	binding result [4]	binding result [5]
B1	binds	binds			
B2	binds				
B3			binds	binds	binds
B4					binds
